This test has as its target T1, Fc-APRIL (UniProt O75888 105-250, limits assumed).
T1 construct: also called control protein Fc-APRIL; not shown: Fc portion; not described for this construct
T1 sequence (looked up): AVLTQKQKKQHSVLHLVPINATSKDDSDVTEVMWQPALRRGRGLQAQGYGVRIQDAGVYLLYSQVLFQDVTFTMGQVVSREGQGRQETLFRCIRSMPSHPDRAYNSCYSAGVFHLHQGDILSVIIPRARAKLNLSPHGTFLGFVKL
The experiment in a line: western blot under reducing conditions.

One molecule from patent publication US20160075789A1 (EDIMER PHARMACEUTICALS, published 2016) can be followed below.

B1: mAbEDA1-EctoD3 (antibody, mouse IgG1, V domains shown)
VH: QVQLHQSGAELARPGASVKLSCKASGYTFTSYGISWVKQRTGQGLEWIGEVYPRSGDTYYHDYFEGKATLTADKSSSTAYMELRSLTSEDSAVYFCARGDYADVWGTGTTVTVSS
VL: DIVLTQSPASLAVSLGQRATISCRASKSVSTFGNSYMLWYQQKPGQPPKLLIYLASNLESGVPARFSGSGSGTDFTLNIHPVEEEDAATYYCQNSRELPYTFGGGTKLEIKR
notes: also called EctoD3-biotin; EctoD3-biot
In the case of B1, the binding result was “no binding”.
